B1: HDV Ribozyme (parent)
chain: GGCCGGCAUGGUCCCAGCCUCCUCGCUGGCGCCGGCUGGGCAACAUUCCGAGGGGACCGUCCCCUCGGUAAUGGCGAAUGGGACCCA

The variants in the series derive from B1. The experiment in a line: self-cleavage, relative activity (ratio to wild type); higher = more cleavage; co-transcriptional.
For the variant G55U A71C, the self-cleavage is 0.725.
With C44G G53A, the self-cleavage worked out at 0.665.
On to C15G U60G, for which the self-cleavage came to 0.712.
For C36A G68U, the self-cleavage was 0.157.
As to G67U A78U, the self-cleavage stood at 0.253.
For the variant C22G C75A, the self-cleavage stood at 0.
As to C3A U37A, the self-cleavage was 0.122.
As to G55C U65C, the self-cleavage was determined as 0.867.
With C18G G52C the figure was 0.0554.
Take C21U G40C: the self-cleavage is 0.166.
C15U C44U: the self-cleavage turned out to be 0.707.
For the variant U72G G80C, the self-cleavage stood at 0.26.
Consider A16G U27A, for which the self-cleavage was 0.703.
Consider G35C G74C, for which the self-cleavage turned out to be 0.17.
As for C14A C36A, the self-cleavage stood at 0.
With U27A G74U, the self-cleavage amounted to 0.427.
On to C26A C75U, for which the self-cleavage is 0.203.
On to G67U G80U, for which the self-cleavage worked out at 0.25.
Consider C21G C86U, for which the self-cleavage was 0.0791.
For G10A C84G, the self-cleavage was determined as 0.591.
Regarding C15G C41G, the self-cleavage worked out at 0.289.
Regarding C49A U79A, the self-cleavage was 1.05.
In the case of G2U G35C it was 0.016; in that of G39A C49A, 0.573; in that of C7G A87U, 0.284.
For G39C G76U, the self-cleavage came out at 0.831.
On to C36A C66A, for which the self-cleavage came out at 0.151.
For G40C G80U, the self-cleavage turned out to be 0.0817.
On to U12G G38C, for which the self-cleavage amounted to 0.178.
Regarding A45G U60A, the self-cleavage was determined as 0.866.
In the case of C62G C84U it was 0.846; in that of U23A G39C, 0.204.
As to A16C U60C, the self-cleavage was found to be 0.369.
Take U12A G80U: the self-cleavage stood at 0.0968.
On to A45U C61A, for which the self-cleavage stood at 0.928.
For G34U C58U, the self-cleavage was found to be 0.153.
G6U G28C: the self-cleavage was 0.0739.
With A43U C64G, the self-cleavage turned out to be 0.506.
Consider G17U G50U, for which the self-cleavage was 0.609.
On to U69C A77G, for which the self-cleavage is 0.997.
Regarding C63U A87U, the self-cleavage turned out to be 1.01.
As for U9C G82A, the self-cleavage amounted to 0.266.
With G39U G40A, the self-cleavage was 0.807.
As to U23G C62G, the self-cleavage is 0.453.
On to C61G G81A, for which the self-cleavage amounted to 0.219.
Turning to G29C C30A, the self-cleavage is 0.156.
Take G6C G53U: the self-cleavage worked out at 0.138.
Regarding U27G A70C, the self-cleavage turned out to be 0.554.
Turning to C26G C44U, the self-cleavage is 1.04.
In the case of C4G G73C it was 0.0361; in that of C62G C66U, 0.554.
Regarding G1C C18A, the self-cleavage is 0.123.
For C26G A78C, the self-cleavage stood at 0.
Take U47A A71C: the self-cleavage turned out to be 0.85.
On to A8G G59C, for which the self-cleavage was 0.858.
On to A16C G34A, for which the self-cleavage amounted to 0.18.
Regarding U60G C62U, the self-cleavage is 1.05.
In the case of C4A G25U it was 0.0252; in that of C3A G82A, 0.0811.
Consider G17A G28U, for which the self-cleavage is 0.122.
In the case of C4G G5C it was 0.0594; in that of C3U A51C, 0.831; in that of A71G G82A, 0.538.
For the variant C15A C18U, the self-cleavage was found to be 0.295.
In the case of G54A U79G, the self-cleavage came to 0.643.
Take G10U A87G: the self-cleavage came out at 0.704.
On to A43G C63A, for which the self-cleavage is 0.642.
In the case of C30G A45C, the self-cleavage was 0.0997.
With U47A U65G, the self-cleavage worked out at 0.931.
As for C19G G25U, the self-cleavage was 0.0923.
For G25C C85A, the self-cleavage stood at 0.0594.
With C32G G52A the figure was 0.254; with G52C C61U, 0.963.
With C24U A83U the figure was 0.198; with U65C U79C, 0.415.
For the variant U47G U60A, the self-cleavage came to 1.33.
In the case of U20G U46A, the self-cleavage amounted to 0.192.
For G52C G68C, the self-cleavage amounted to 0.369.
G29A G31A: the self-cleavage stood at 0.0723.
In the case of G17C C26A, the self-cleavage turned out to be 0.369.
As for U47C G50U, the self-cleavage turned out to be 0.733.
With G6C G76U, the self-cleavage is 0.604.
In the case of C13G G76A, the self-cleavage was 0.
Consider G52U A78G, for which the self-cleavage was found to be 0.514.
C48A U69C: the self-cleavage was found to be 0.892.
With A8C G39U the figure was 0.381; with G1C C32U, 0.192; with G29U G81U, 0.0554.
With G5A G38U the figure was 0.0804; with C4A U79C, 0; with U12C, 0.399.
As for G35U C62G, the self-cleavage turned out to be 0.259.
On to C32A G68C, for which the self-cleavage came to 0.113.
G11C G53U: the self-cleavage was 0.415.
G38C A71G: the self-cleavage was 0.166.
With G28C A43C the figure was 0.0573.
For U20C G81U, the self-cleavage was determined as 0.
Regarding C21U A87U, the self-cleavage stood at 0.368.
With G50A G67U the figure was 1.06; with C15A U46G, 0.383.
With C24U U47C the figure was 0.739.
As for C18A G67C, the self-cleavage worked out at 0.123.
In the case of C19U A70U, the self-cleavage was 0.169.
With C15G G82U the figure was 0.229.
With G38A A43U, the self-cleavage is 0.111.
As to U12C C49G, the self-cleavage worked out at 0.199.
For the variant G38A C64U, the self-cleavage came to 0.225.
With G55A G76A, the self-cleavage was 1.
With C32U C41A the figure was 0.591.
In the case of G17A C18U it was 0.106; in that of C15A U37C, 0.665; in that of G1C A42U, 0.
For the variant G1U C75G, the self-cleavage was found to be 0.162.
Take U47G G73A: the self-cleavage was 0.852.
Regarding C7A G40U, the self-cleavage came out at 0.295.
As for G17C U27C, the self-cleavage amounted to 0.
Regarding G11C G73U, the self-cleavage is 0.16.
In the case of G6U C49G, the self-cleavage stood at 0.306.
C48U G76A: the self-cleavage came to 1.08.
As for G67U A71U, the self-cleavage turned out to be 0.992.
With C7G U9C, the self-cleavage amounted to 0.
Regarding G11C U37C, the self-cleavage turned out to be 0.201.
For G82U A83U, the self-cleavage was determined as 0.289.
As for C7U G35C, the self-cleavage was determined as 0.
As for A43C U65A, the self-cleavage was found to be 0.623.
As to C32U C49G, the self-cleavage was determined as 0.743.
Turning to C21U A71U, the self-cleavage came to 0.572.
C30G C36A: the self-cleavage turned out to be 0.0554.
Turning to U47G A71G, the self-cleavage came to 1.11.
For A16U A70U, the self-cleavage is 0.764.
On to G11U G67A, for which the self-cleavage was 0.0875.
For G1U U37C, the self-cleavage came to 0.415.
As for C15U A45C, the self-cleavage was 0.277.
Turning to U23G G74A, the self-cleavage was 0.0489.
In the case of C24G U65C it was 0.224; in that of U12C G80A, 0.243.
C7G C61G: the self-cleavage turned out to be 0.287.
In the case of G25U U37A, the self-cleavage was determined as 0.0831.
As for G31C C61G, the self-cleavage amounted to 0.259.
For A16U G59A, the self-cleavage stood at 0.967.
Consider G2A C86A, for which the self-cleavage came out at 0.172.
As for G2A U60A, the self-cleavage was found to be 0.208.
As for C36A U72C, the self-cleavage was 0.0405.
Consider G10A G39C, for which the self-cleavage worked out at 0.182.
Take C32A C44A: the self-cleavage turned out to be 0.364.
G6C G55C: the self-cleavage turned out to be 0.308.
In the case of C57A G74C, the self-cleavage turned out to be 0.108.
C14G C66U: the self-cleavage came to 0.831.
For the variant C36A G82U, the self-cleavage turned out to be 0.0839.
Consider G68A C75A, for which the self-cleavage is 0.164.
In the case of C13A C18A it was 0.169; in that of G11A G50U, 0.283; in that of C48U G73C, 0.422.
Turning to C33A G40C, the self-cleavage was found to be 0.217.
In the case of C15G C62U, the self-cleavage came to 0.665.
In the case of C18A G40C it was 0.162.
Consider G25A C58G, for which the self-cleavage was determined as 0.111.
With G25A G53C the figure was 0.248.
Regarding C44A C64U, the self-cleavage was determined as 0.665.
As to C18A C84U, the self-cleavage is 0.0997.
With C49G G81U, the self-cleavage turned out to be 0.205.
On to C14A C64A, for which the self-cleavage is 0.793.
As to A16G C30U, the self-cleavage was determined as 0.665.
With C66U A77C the figure was 0.34; with G25C A77G, 0.111; with G5U A56U, 0.431.
Turning to G52U G53A, the self-cleavage worked out at 0.849.
